Source: a protein production outcome set (Wang et al. 2014)

Test: label from the status in PepcDB records

Sequence | protein production
MEQKQQSERLGTEAIPKLLRSLSIPAMIGMFVMALYNVVDTIFISYAVGIEGVAGVTIAFPIMMIMMSMAGALGIGGASVISRRLGERRGEEANQVFGNILTVILVLSVIGFISAFTLLGPALQLFGATSVTQGYATDYLFPILLGSIFFFFAFAANNIIRSEGNATFAMVTMIVPAVLNILLDVLFIFGLNMGVLGASIATVIAQASVTGLVLRYFLTGKSTLSLHWSDLRMKGSVIKEVCLVGLPAFVQQSSASLMMIAINSMLLRFGSDFYVGVFGLVQRIMMFVMMPMMGIMQAMQPIVGYNYGAKQYSRLRETVMLGFKVATIFSIGIFALLMLFPEALLRVFTADREVIQAGVSAMHILFCVTFLIGAQIVAGGLYQSLGKPKQALILSLSRQIIFLIPLVLILPHIFGLSGVWWAFPIADVLSFILTVVLLYRDRNVFFLKTKEERELDLVKTASST | failed
MTIPNQIEVRGGRVHNLKNIDVDIPLNKFVAISGLSGSGKSSLAMGILYEEGSRRYLDALSTYMRRRIKQGSQVDVTSVKHIPSALALRQRPSVPNERATVGTMSETFNILRLIFSRLGSPVCPNGHRLKPSLKIAESMSLSGEKMGQLTCPVCGENFYAPSAEQFAFNSEGACIECGGTGKVRQLDEDKLIADENLSIKEGAVASWSLPGRNFMPNVAEYAGVRIDIPYKDLTAKEKDFVLNGPEKKYKMDFLSGTGRVFHDFNVLYENAHQAVYRSAQTSKSERAQKRIAEFFTYSICPVCHGSRLKPELLKQWVGNSNINQVSQKQLGELPTWADQIQAELPANMHKMAHALFAEFLDNLQPLLDLGLDYLTMARNGNTLSTGELQRIQLARTLRTETTGVLYVLDEPSIGLHPANVAGLIKVLRKLVNQGNSLVVVDHNVDIIAAADEVIEIGPGSGEKGGQILDHGPISTIKNDQQSLIRPYLDGSAQLLARKIANQINNDGISFEVKNYFNLKDIKANIPLNQLTAVTGFSGAGKTSLILDSLVPAIKAESKNEKLPKQIINFSAPVSNVVGVDASPIGKSTRSTVATYTSIMNNLRRLFASQPLAKEKHFTPTYFSYNNKQGACPTCGGTGIVTLDIQFLPDMQQVCPTCHGDRYNQKVQQVKWQGMSIVDILNLDIEGALPLFKRVPKIERELKLLKEVGLDYLHLGESTPTLSGGEAQRLKLVTHLSHKQSDTLFVFDEPTIGLHPLDVKTLVKVMQKLLDQGATLITITHDLNLIANCDYIIDLGPQGGNNGGQIVASGRVMDLIKDPHSLTTQYLAVYCENLICLKIIIDLLA | failed
MKKVLVGLLAIMVMIIASGYTYYKMNYGGESYYVQILVNGEREETTADDHTPMVIYHYKLDSFNSKGDKKLVKFMASHNLRNQAYLELTYNKHKGVTNWNEVQEKEIPKPALKELQSLENLEHHHHHH | failed
MTAMMTILGPVLMGAAFGFLLQRGKVTNCNVIENQFRLRDFTVLKVMGTAIVVGGIGVLLLVDTGNTKYYVKDANMLAIALGAALFGIGMVVYGYCPGTALGAIATGSIHALVGALGMVAGAILYALSFDWLKAHVLNVWALGKVRLPDVTNIPDIIWFAALAVGAGLFFWWIESVEAEQKRM | failed
MVWAPLGPPRTDCLTLLHTPSKDSPKMSLEWLVAWSWSLDGLRDCIATGIQSVRDCDTTAVITVACLLVLFVWYCYHVGREQPRPYVSVNSLMQAADANGLQNGYVYCQSPECVRCTHNEGLNQKLYHNLQEYAKRYSWSGMGRIHKGIREQGRYLNSRPSIQKPEVFFLPDLPTTPYFSRDAQKHDVEVLERNFQTILCEFETLYKAFSNCSLPQGWKMNSTPSGEWFTFYLVNQGVCVPRNCRKCPRTYRLLGSLRTCIGNNVFGNACISVLSPGTVITEHYGPTNIRIRCHLGLKTPNGCELVVGGEPQCWAEGRCLLFDDSFLHAAFHEGSAEDGPRVVFMVDLWHPNVAAAERQALDFIFAPGR | failed
MPVLLSRLASRTNPSLANRCAMDTWLRSAIDYISSWIEFQQTTIQQPGVIVAFAHRGEVVAEHAFGVANLDTGEKLTPRHRCRIASHSKSFTSAGIMKLREQRKLRLDDSVGQYVGGLHPRVAETTIAQLLSHSAGLTRDGADSGQFIDRRPYLNAEELLAELKLPTAIEPGTRFKYSNHGFGLLGLVIEAVTKEPYTAWIKREIIEPAGLRETEPDAPLPKGAAFARGHTRKVPLGERCVIPGDNPTHAMASATGFAATAADTARFFAQLAPNARKSVLSVASRREMTRHHWRIPQSFEAYYGLGIGAGKLDGWDWLGHGGHFQGYISRTCAIPACELAISIISNSIDGAAPFWMDGAMQILRTFKTRGAPDRRVRDWTGRWWTIWGATDLVPMGDRVLIANPQFNNPFMDAGEIEVTGRDTGRIAAAAGHSSHGEPVRRVRDARGKVSDIWLAGANVKPASVVAREIARQYPPRKRRPTP | failed
MRFSYIEPRAKYLISKLSKIWVFYIFLSFVVIGGLVWFMHNAIKSTQDNASSLTIQERLYRHEISRLQVKTDETLKLIKEAKKRLNYNDDIRDVLQGLLNIVPDSITINSIEIDQQSVVVSGKTPSKEAFYFLFQNKLNPMFDYSRAEFFPLSDGWFNFVSTNFSNSLLIKNPESIK | failed
MYLRRFYDEGLAHASYLVGCQETGEACVIDPARDVEPYLLTAKREGLRIVAALETHIHADFVSGAREMADRAGAAICVSDEGPPEWKSEYVKAYPHRLLKDGDELHFGNVRIVVMHTPGHTPEHVSYLLYDGKTSPDVPMALFSGDFVFVGDVGRPDLLERVAGESGSSEALARQMFRSLRKFEALPDHVQVLPAHGAGSACGKALGAVPSSTVGYEKLVNWALQHKDEDAFVQALLAGQPEAPIYFARMKLVNKVGPRLLAELGAPERVDLPPERVRAWREGGVVLDVRPADAFAKRHLAGSLNIPWNKSFVTWAGWLLPADRPIHLLAADAIAPDVIRALRSIGIDDVVDWTDPAAVDRAAPDDVASYANVSPDEVRGALAQQGLWLLDVRNVDEWAGGHLPQAHHIPLSKLAAHIHDVPRDGSVCVYCRTGGRSAIAASLLRAHGVGDVRNMVGGYEAWRGKGFPVEA | not failed
MINQNATYMEESAQSAVDNFGLGFNLGNTLDANGCGTGKPVATYETFWGQPETTQDMMTFLMQNGFNAVRIPVTWYEHMDAEGNVDEAWMMRVKAIVEYAMNAGLYAIVNVHHDTAAGSGAWIKADTDVYAATKEKFKKLWTQIANALADYDQHLLFEGYNEMLDGNNSWDEPQKASGYEALNNYAQDFVDAVRATGGNNATRNLIVNTYAAAKGENVLNNFMLPTDAVNNHLIVQVHSYDPWNFFNTKTTWDSECHNTLTEIFSALSKKFTTIPYIIGEYGTHGESDISVSKSSPAEKIKLAADQAADMVKLAKDHHSATFYWMSIFDGSDRIQPQWSLPTVVEAMQEAYNN | not failed
VKMSDKWIEIEEILSGLIGDLTIAVTVLKDYEGKAFLREPQHQTKRQCIWRLCVYSIVINCRKYVELNQKYGKEFQALIPGHNHIRGVYNNEINKNTAIKKLRNHCVAHVSDKSKYLKPAEVQEEIIKMFDGNFADEFLDWICPDNISTTDKSESLVGVIELLRDAVSAKL | not failed
MIAAAWIAVTAALYAAARALHRRFPRPWLTPLLVVPGALAAVLLAARVPYPGYMRGGRLLVDLLGPATVAFALPLHRHAGLLRRHAAELCAGILAGCAVAVGSSFLLARALGLGRPLALSLAPRSITTPFAMQVAGDLGGVPALAAVFVILTAVVGLVVGQLLLRWLPLRSAVARGALFGMGAHAAGTAQAMELGRVEGAVAGVVMIVAGLGVLVATPLLRLAL | failed
MRRFLVLLWLLSLALAAPRLVVEPEDGVKPLLDLIASAREEILVKMYLWTPSRMDVVEALGEAARRGVRVRVLLEREPSGGRVDLEVFQALKARGVEVRLTTPFRFVFVHEKSLVVDRKRAWVGTMNLTGSSFAANREYALILDDPAQVAEIAKVFEADWEGERLDLSQALLVWAPSRVLGGVKEGNARETLLALIRGAQRELFLEHQAMADPEVEAALKEALGRGVRVRLLGSPKEPGDTYFLAGALRLKEAGALVRFLPDPYVHAKVLVRDGEEALLGSLNLSANSIQANRELAVRFTAREAPEAFRRLLFVMEGDWEKALPENPFALPPVEGVIPWQEAPRYFGRVATVEGVIQAVEDRGTVAFLKFGPGESDLRLVVFPRSYGLFAQPFPQSYLGKKVRARGRIVLYAGYYEIVLEGPENLEVLDGGP | failed
